Source: article doi:10.1101/2021.05.11.443658 (bioRxiv, 2021)

Target: the molecule itself
Assay: non-reducing SDS-PAGE

B1: Thioredoxin-His-tagged OsbZIP47 full-length protein (natural protein, rice (Oryza sativa), UniProt Q5Z6N9 1-385, looked up)
chain: MAAHQGMAAATAADRFCLPRMAAAAAAASQVENWGDSGVIVSSPFTDDTSTDLDDSADKHHLHALVGGGDGGDDAGEQRGADSSAVSKERRGDQKMQRRLAQNREAARKSRMRKKAYIQQLESSRSKLMHLEQELQRARQQGIFIATGGSGDHGHSIGGNGTLAFDLEYARWLDEHQRHINDLRVALNAQMSDDELCELVDAVMMHYDQVFRLKSFATKSDVFHVLSGMWMSPAERFFMWLGGFRSSELLKVLASHLEPLTDQQLMGICNLQQSSQQAEDALSQGMEALQQTLGDTLVSAAATVVSGGGGADNVTNYMGQMAIAMAKLTTLENFLRQADLLRHQTLQQMHRILTTRQAARALLVISDYFSRLRALSSLWLARPRD
B1: binds.
